Measured values taken from patent publication US20240052052A1 (published 2024).

Target: T1, human CD24 (human, UniProt P25063 27-59, heavily glycosylated, GPI-anchored (as described in the background))
T1 chain: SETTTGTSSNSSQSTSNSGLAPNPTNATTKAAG
Assay: FACS binding; DoHH2 cells

B1: SN3 (antibody, V domains shown)
VH: QVQLKESGPGLVAPSQSLSITCTVSGFSLTSYGVHWVRQPPGKGLEWLGVIWAGGSTNYNSALMSRLSISKDNSKSQVFLKMNSLQTDDTAMYYCAVYYGYLFFAYWGQGTLVTVSA
VL: ENVLTQSPAIMSASPGEKVTMTCSASSSVSYMHWYQQKSTTSPKLWIYDTSKLASGVPGRFSGSGSGNSYSLTISSMEAEDVATYYCFQGSGYPLTFGGGTKLEIK
EC50: 1.87 nM
